B1: N2C3 Asn608Ala (BvgS residues 573-720, N608A) (domain or fragment)
chain: AERALNDQLEFMRVLIDGTPNPIYVRDKEGRMLLCADAYLDTFGVTADAVLGKTIPEANVVGDPALAREMHEFLLTRVAAEREPRFEDRDVTLHGRTRHVYQWTIPYGDSLGELKGIIGGWIDITERAELLRELHDAKESADAANRAK
notes: numbering from the initiation Met of full-length BvgS; source: E. coli BL21 (DE3), pASK-IBA35+, soluble fraction; produced in very low amounts
B2: N2C3 Cys607Ala (BvgS residues 573-720, C607A) (domain or fragment)
chain: AERALNDQLEFMRVLIDGTPNPIYVRDKEGRMLLANDAYLDTFGVTADAVLGKTIPEANVVGDPALAREMHEFLLTRVAAEREPRFEDRDVTLHGRTRHVYQWTIPYGDSLGELKGIIGGWIDITERAELLRELHDAKESADAANRAK
notes: numbering from the initiation Met of full-length BvgS; source: E. coli BL21 (DE3), pASK-IBA35+, purified
B3: N2C3 Tyr596Ala + Asn631Ala (BvgS residues 573-720, Y596A + N631A) (domain or fragment)
chain: AERALNDQLEFMRVLIDGTPNPIAVRDKEGRMLLCNDAYLDTFGVTADAVLGKTIPEAAVVGDPALAREMHEFLLTRVAAEREPRFEDRDVTLHGRTRHVYQWTIPYGDSLGELKGIIGGWIDITERAELLRELHDAKESADAANRAK
notes: as for B2
B4: N2C3 Asp695Ala (BvgS residues 573-720, D695A) (domain or fragment)
chain: AERALNDQLEFMRVLIDGTPNPIYVRDKEGRMLLCNDAYLDTFGVTADAVLGKTIPEANVVGDPALAREMHEFLLTRVAAEREPRFEDRDVTLHGRTRHVYQWTIPYGDSLGELKGIIGGWIAITERAELLRELHDAKESADAANRAK
notes: as for B2
B5: N2C3 His643Ala (BvgS residues 573-720, H643A) (domain or fragment)
chain: AERALNDQLEFMRVLIDGTPNPIYVRDKEGRMLLCNDAYLDTFGVTADAVLGKTIPEANVVGDPALAREMAEFLLTRVAAEREPRFEDRDVTLHGRTRHVYQWTIPYGDSLGELKGIIGGWIDITERAELLRELHDAKESADAANRAK
notes: as for B2
B6: N2C3 Arg670Ala (BvgS residues 573-720, R670A) (domain or fragment)
chain: AERALNDQLEFMRVLIDGTPNPIYVRDKEGRMLLCNDAYLDTFGVTADAVLGKTIPEANVVGDPALAREMHEFLLTRVAAEREPRFEDRDVTLHGRTAHVYQWTIPYGDSLGELKGIIGGWIDITERAELLRELHDAKESADAANRAK
notes: as for B2
B7: N2C3 Asn608Ser (BvgS residues 573-720, N608S) (domain or fragment)
chain: AERALNDQLEFMRVLIDGTPNPIYVRDKEGRMLLCSDAYLDTFGVTADAVLGKTIPEANVVGDPALAREMHEFLLTRVAAEREPRFEDRDVTLHGRTRHVYQWTIPYGDSLGELKGIIGGWIDITERAELLRELHDAKESADAANRAK
notes: as for B2

Columns and labels:
[1] = molecular target: recombinant PASBvg protein N3C2 (BvgS residues 581-714) (Bordetella pertussis) (UniProt P16575); assay: SEC; size-exclusion chromatography of the purified recombinant proteins; data not shown
[2] = molecular target: recombinant PASBvg protein N2C2 (BvgS residues 573-714) (Bordetella pertussis) (UniProt P16575); assay: as above
[3] = molecular target: recombinant PASBvg protein N3C3 (BvgS residues 581-720) (Bordetella pertussis) (UniProt P16575); assay: as above
[4] = molecular target: recombinant PASBvg protein N2C3 (BvgS residues 573-720) (Bordetella pertussis) (UniProt P16575); assay: as above
[5] = molecular target: recombinant PASBvg protein N2C3 (BvgS residues 573-720) (Bordetella pertussis) (UniProt P16575); assay: native MS; ESI-Q-TOF, positive ion mode, native conditions; purified N2C3 at 10 uM in 27 mM ammonium acetate
[6] = molecular target: the molecule itself; assay: not stated; oligomeric state of the purified or soluble N2C3 variants; method not named; not shown

| Molecule | stoichiometry N [6] | further results |
| --- | --- | --- |
| recombinant PASBvg protein N3C2 (BvgS residues 581-714) (from UniProt P16575 581-714) (domain or fragment) |  | stoichiometry N [1]: 2 |
| recombinant PASBvg protein N2C2 (BvgS residues 573-714) (from UniProt P16575 573-714) (domain or fragment) |  | stoichiometry N [2]: 2 |
| recombinant PASBvg protein N3C3 (BvgS residues 581-720) (from UniProt P16575 581-720) (domain or fragment) |  | stoichiometry N [3]: 2 |
| recombinant PASBvg protein N2C3 (BvgS residues 573-720) (from UniProt P16575 573-720) (domain or fragment) |  | stoichiometry N [4]: 2; stoichiometry N [5]: 2 |
| B1 | 2 |  |
| B2 | 2 |  |
| B3 | 2 |  |
| B4 | 2 |  |
| B5 | 2 |  |
| B6 | 2 |  |
| B7 | 2 |  |

From paper PMC3726324, “Characterization of the PAS domain in the sensor-kinase BvgS: mechanical role in signal transmission” (BMC Microbiology, 2013)
